{
  "source": "patent US20260034194A1",
  "about": "“PHARMACEUTICAL COMPOSITIONS AND METHODS OF TREATING PSP” (priority 2022, published 2026)",
  "assay_type": "binding",
  "settings": "for Kd: FP, 1 nM F-STX, 25° C., errors S.D.; for ΔΔG: ΔΔG = RT ln(Kd mutant or XSxph/Kd RcSxph), T = 298K, FP with F-STX",
  "data": [
    {"molecule": "F784A: RcSxph STX binding pocket mutant F784A (protein) MAPTFQTALFFTIISLSFAAPNAKQVRWCAISDLEQKKCNDLVGSCNVPDITLVCVLRSSTEDCMTAIKDGQADAMFLDSGEVYEASKDPYNLKPIIAEPYSSNRDLQKCLKERQQALAKKMIGHYIPQCDEKGNYQPQQCHGSTGHCWCVNAMGEKISGTNTPPGQTRATCERHELPKCLKERQVALGGDEKVLGRFVPQCDEKGNYEPQQFHGSTGYSWCVNAIGEEIAGTKTPPGKIPATCQKHDLVTTCHYAVAMVKKSSAFQFNQLKGKRSCHSGVSKTDGWKALVTVLVEKKLLSWDGPAKESIQRAMSKFFSVSCIPGATQTNLCKQCKGEEGKNCKNSHDEPYYGNYGAFRCLKEDMGDVAFLRSTALSDEHSEVYELLCPDNTRKPLNKYKECNLGTVPAGTVVTRKISDKTEDINNFLMEAQKRQCKLFSSAHGKDLMFDDSTLQLALLSSEVDAFLYLGVKLFHAMKALTGDAHLPSKNKVRWCTINKLEKMKCDDWSAVSGGAIACTEASCPKGCVKQILKGEADAVKLEVQYMYEALMCGLLPAVEEYHNKDDFGPCKTPGSPYTDFGTLRAVALVKKSNKDINWNNIKGKKSCHTGVGDIAGWVIPVSLIRRQNDNSDIDSFFGESCAPGSDTKSNLCKLCIGDPKNSAANTKCSLSDKEAYYGNQGAFRCLVEKGDVAFVPHTVVFENTDGKNPAVWAKNLKSEDFELLCLDGSRAPVSNYKSCKLSGIPPPAIVTREESISDVVRIVANQQSLYGRKGFEKDMFQLFSSNKGNNLLFNDNTQCLITADRQPKDIMEDYFGKPYYTTVYGASRSAMSSELISACTIKHC", "values": [
      {"measurement": "Kd", "result": "725 ± 109", "unit": "nM"},
      {"measurement": "ΔΔG", "result": 2.71, "unit": "kcal/mol"}
    ]},
    {"molecule": "D785A: RcSxph STX binding pocket mutant D785A (protein) MAPTFQTALFFTIISLSFAAPNAKQVRWCAISDLEQKKCNDLVGSCNVPDITLVCVLRSSTEDCMTAIKDGQADAMFLDSGEVYEASKDPYNLKPIIAEPYSSNRDLQKCLKERQQALAKKMIGHYIPQCDEKGNYQPQQCHGSTGHCWCVNAMGEKISGTNTPPGQTRATCERHELPKCLKERQVALGGDEKVLGRFVPQCDEKGNYEPQQFHGSTGYSWCVNAIGEEIAGTKTPPGKIPATCQKHDLVTTCHYAVAMVKKSSAFQFNQLKGKRSCHSGVSKTDGWKALVTVLVEKKLLSWDGPAKESIQRAMSKFFSVSCIPGATQTNLCKQCKGEEGKNCKNSHDEPYYGNYGAFRCLKEDMGDVAFLRSTALSDEHSEVYELLCPDNTRKPLNKYKECNLGTVPAGTVVTRKISDKTEDINNFLMEAQKRQCKLFSSAHGKDLMFDDSTLQLALLSSEVDAFLYLGVKLFHAMKALTGDAHLPSKNKVRWCTINKLEKMKCDDWSAVSGGAIACTEASCPKGCVKQILKGEADAVKLEVQYMYEALMCGLLPAVEEYHNKDDFGPCKTPGSPYTDFGTLRAVALVKKSNKDINWNNIKGKKSCHTGVGDIAGWVIPVSLIRRQNDNSDIDSFFGESCAPGSDTKSNLCKLCIGDPKNSAANTKCSLSDKEAYYGNQGAFRCLVEKGDVAFVPHTVVFENTDGKNPAVWAKNLKSEDFELLCLDGSRAPVSNYKSCKLSGIPPPAIVTREESISDVVRIVANQQSLYGRKGFEKDMFQLFSSNKGNNLLFNDNTQCLITFARQPKDIMEDYFGKPYYTTVYGASRSAMSSELISACTIKHC", "values": [
      {"measurement": "Kd", "result": "19.5 ± 2.5", "unit": "nM"},
      {"measurement": "ΔΔG", "result": 0.57, "unit": "kcal/mol"}
    ]},
    {"molecule": "Q787E: RcSxph STX binding pocket mutant Q787E (protein) MAPTFQTALFFTIISLSFAAPNAKQVRWCAISDLEQKKCNDLVGSCNVPDITLVCVLRSSTEDCMTAIKDGQADAMFLDSGEVYEASKDPYNLKPIIAEPYSSNRDLQKCLKERQQALAKKMIGHYIPQCDEKGNYQPQQCHGSTGHCWCVNAMGEKISGTNTPPGQTRATCERHELPKCLKERQVALGGDEKVLGRFVPQCDEKGNYEPQQFHGSTGYSWCVNAIGEEIAGTKTPPGKIPATCQKHDLVTTCHYAVAMVKKSSAFQFNQLKGKRSCHSGVSKTDGWKALVTVLVEKKLLSWDGPAKESIQRAMSKFFSVSCIPGATQTNLCKQCKGEEGKNCKNSHDEPYYGNYGAFRCLKEDMGDVAFLRSTALSDEHSEVYELLCPDNTRKPLNKYKECNLGTVPAGTVVTRKISDKTEDINNFLMEAQKRQCKLFSSAHGKDLMFDDSTLQLALLSSEVDAFLYLGVKLFHAMKALTGDAHLPSKNKVRWCTINKLEKMKCDDWSAVSGGAIACTEASCPKGCVKQILKGEADAVKLEVQYMYEALMCGLLPAVEEYHNKDDFGPCKTPGSPYTDFGTLRAVALVKKSNKDINWNNIKGKKSCHTGVGDIAGWVIPVSLIRRQNDNSDIDSFFGESCAPGSDTKSNLCKLCIGDPKNSAANTKCSLSDKEAYYGNQGAFRCLVEKGDVAFVPHTVVFENTDGKNPAVWAKNLKSEDFELLCLDGSRAPVSNYKSCKLSGIPPPAIVTREESISDVVRIVANQQSLYGRKGFEKDMFQLFSSNKGNNLLFNDNTQCLITFDREPKDIMEDYFGKPYYTTVYGASRSAMSSELISACTIKHC", "values": [
      {"measurement": "Kd", "result": "6.4 ± 1.6", "unit": "nM"},
      {"measurement": "ΔΔG", "result": -0.09, "unit": "kcal/mol"}
    ]},
    {"molecule": "Y558F: RcSxph STX binding pocket mutant Y558F (protein) MAPTFQTALFFTIISLSFAAPNAKQVRWCAISDLEQKKCNDLVGSCNVPDITLVCVLRSSTEDCMTAIKDGQADAMFLDSGEVYEASKDPYNLKPIIAEPYSSNRDLQKCLKERQQALAKKMIGHYIPQCDEKGNYQPQQCHGSTGHCWCVNAMGEKISGTNTPPGQTRATCERHELPKCLKERQVALGGDEKVLGRFVPQCDEKGNYEPQQFHGSTGYSWCVNAIGEEIAGTKTPPGKIPATCQKHDLVTTCHYAVAMVKKSSAFQFNQLKGKRSCHSGVSKTDGWKALVTVLVEKKLLSWDGPAKESIQRAMSKFFSVSCIPGATQTNLCKQCKGEEGKNCKNSHDEPYYGNYGAFRCLKEDMGDVAFLRSTALSDEHSEVYELLCPDNTRKPLNKYKECNLGTVPAGTVVTRKISDKTEDINNFLMEAQKRQCKLFSSAHGKDLMFDDSTLQLALLSSEVDAFLYLGVKLFHAMKALTGDAHLPSKNKVRWCTINKLEKMKCDDWSAVSGGAIACTEASCPKGCVKQILKGEADAVKLEVQYMYEALMCGLLPAVEEYHNKDDFGPCKTPGSPFTDFGTLRAVALVKKSNKDINWNNIKGKKSCHTGVGDIAGWVIPVSLIRRQNDNSDIDSFFGESCAPGSDTKSNLCKLCIGDPKNSAANTKCSLSDKEAYYGNQGAFRCLVEKGDVAFVPHTVVFENTDGKNPAVWAKNLKSEDFELLCLDGSRAPVSNYKSCKLSGIPPPAIVTREESISDVVRIVANQQSLYGRKGFEKDMFQLFSSNKGNNLLFNDNTQCLITFDRQPKDIMEDYFGKPYYTTVYGASRSAMSSELISACTIKHC", "values": [
      {"measurement": "Kd", "result": "6.3 ± 2.3", "unit": "nM"},
      {"measurement": "ΔΔG", "result": -0.10, "unit": "kcal/mol"}
    ]}
  ]
}
